Assay results: publication PMC12866752 (2025)

B1: recombinant ectodomain of human IFN-λ receptor 1 (hIFN-λR1) (receptor)
chain: RPRLAPPQNVTLLSQNFSVYLTWLPGLGNPQDVTYFVAYQSSPTRRRWREVEECAGTKELLCSMMCLKKQDLYNKFKGRVRTVSPSSKSPWVESEYLDYLFEVEPAPPVLVLTQTEEILSANATYQLPPCMPPLDLKYEVAFWKEGAGNKTLFPVTPHGQPVQITLQPAASEHHCLSARTIYTFSVPKYSKFSKPTCFLLEVPEANWA

Key:
Experiment in all cases: SPR
[1] = molecular target: designed human interferon-λ3 variant hIFN-λ3-DE1, His-tagged (human, UniProt Q8IZI9)
[2] = molecular target: B1
[3] = molecular target: B1

In the case of B1, the Kd [1] is reported as 6.61 nM and the koff [1] is reported as 0.0244 s⁻¹.

B2: wild-type human interferon-λ3 (hIFN-λ3-WT), His-tagged (ligand)
chain: VPVARLRGALPDARGCHIAQFKSLSPQELQAFKRAKDALEESLLLKDCKCRSRLFPRTWDLRQLQVRERPVALEAELALTLKVLEATADTDPALGDVLDQPLHTLHHILSQLRACIQPQPTAGPRTRGRLHHWLHRLQEAPKKESPGCLEASVTFNLFRLLTRDLNCVASGDLCV
For B2, the koff [2] was 0.0183 s⁻¹ and the Kd [3] was 7.67 nM.
